Two substances from PMC3796514 can be followed below.

Assay [1] has as its target HapRV2G-E117K (HapR natural variant with lysine at position 117 in the dimerization domain), N-terminal 6X His fusion (Vibrio cholerae). As to the kind of experiment: SEC.
The target of assay [2] is HapRV2G (wild type functional HapR, glycine at position 39), N-terminal 6X His fusion (Vibrio cholerae). As to the kind of experiment: SEC.

Broadly, the stoichiometry N is the number of molecules, sites or subunits per partner or assembly. Consider “HapRV2G-E117K (HapR natural variant with lysine at position 117 in the dimerization domain), N-terminal 6X His fusion (natural protein)”, for which the stoichiometry N in assay [1] is 2.

As for “HapRV2G (wild type functional HapR, glycine at position 39), N-terminal 6X His fusion (natural protein)”, in assay [2], the stoichiometry N came to 2.
